Here are results for 32 molecules from patent US20030148264A1, “Phage displayed PDZ domain ligands” (GENENTECH, INC., priority 2001, published 2003).

Read-outs that look alike come from different tables or passages of the source. Where a SMILES comes first, the peptide text is derived from it. Where no end group is shown, it is not given here.

Experiment [1] has as its target T1, MAGI 3 PDZ2 (Homo sapiens, UniProt Q5TCQ9).
T1 sequence (Q5TCQ9 584-707 isoform Q5TCQ9-2): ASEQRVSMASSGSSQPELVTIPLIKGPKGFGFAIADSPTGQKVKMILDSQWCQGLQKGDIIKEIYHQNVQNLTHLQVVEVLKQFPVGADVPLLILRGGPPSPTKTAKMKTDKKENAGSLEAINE
Briefly: Competition ELISA, peptide blocking PDZ domain binding to immobilized peptide. Set-up: made in house; host or cells: E. coli. An excerpt:
(§1) Many methods are known and can be used to identify the binding affinities of PDZ domain binding ligands (e.g. peptides, proteins, small mollecules, etc.); for example, binding affinities can be determined as IC50 values using competition ELISAs. The IC50 value is defined as the concentration of ligand which blocks 50% of PDZ domain binding to a ligand. For example, in solid phase assays, assay plates may be prepared by coating microwell plates (preferably treated to efficiently absorb protein) with neutravidin, avidin or streptavidin. Non-specific binding sites are then blocked through addition of a solution of bovine serum albumin (BSA) or other proteins (for example, nonfat milk) and then washed, preferably with a buffer containing a detergent, such as Tween-20. A biotinylated known PDZ-domain ligand (for example, the phage peptides or cognate protein as fusions with GST or other such molecule to facilitate purification and detection) is prepared and bound to the plate. Serial delutions of the ligand to be tested with a PDZ domain polypeptide arc prepared and contacted with the bound ligand. The plate coated with the immobilized ligandis washed before adding each binding reaction to the wells and briefly incubated. After further washing, the binding reactions are detected, often with an antibody recognizing the non-PDZ fusion partner and a labeled (such as horseradish peroxidase (HRP), alkaline phosphatase (AP), or a fluorescent tag such as fluorescein) secondary antibody recognizing the primary antibody. The plates are then developed with the appropriate substrate (depending on the label) and the signal quantified, such as using a spectrophotometric plate reader. The absorption signal may be fit to a binding curve using a least squares fit. Thus the ability of the various ligands to inhibit PDZ domain from binding a known PDZ-domain ligand can be measured.
Prokaryotic: The ERBIN PDZ domain (aa. 1217-1371 of SEQ ID NO:201) or MAGI-3 PDZ 2 (aa. 584-707 of SEQ ID NO:200) were cloned into the EcoR 1/Not 1 or BamH 1/Not 1 sites of pGEX 6P-1 and pGEX 4T-3 E. coli expression vectors (Pharmacia) respectively. Expression and affinity purification of E coli expressed GST-proteins was performed as recommended by the manufacturer (Pharmacia).
(§2) Peptides corresponding to the selected sequences were synthesized and assayed for binding (Table 2). […] The data also confirmed that the minimal tetrapeptide selectants from the PDZ2 sort bind PDZ2 with high affinity. […] It appears that this large difference in binding affinity is attributable to the residue at P(−1), which is a Trp in the selected peptide as opposed to a Lys in PTEN/MMAC (compare HTQITWV with HTQITKV (SEQ ID NO:220), Table 2; The IC50 values are the concentrations of peptide that blocked 50% of PDZ domain binding to immobilized peptide in an ELISA).

Experiment [2] addresses T2, MAGI 3 PDZ3 (Homo sapiens, UniProt Q5TCQ9).
T2 construct: PDZ2 and PDZ3 were purified as glutathione S-transferase (GST) fusions from E coli; GST; made in house; host or cells: E. coli
The description is as above.
Description: as §1, §2

Experiment [3] addresses GST-MAGI-3 PDZ 2 (aa. 584-707 of SEQ ID NO:200) (human) [GST: P08515]. Kind of experiment: competition ELISA: peptide blocks GST-PDZ binding to immobilized peptide. (In general: An ELISA detects its analyte on a solid surface through an enzyme-linked reagent.)
The target is the same in experiment [4]. Kind of experiment: alanine scan, competition ELISA.
Experiment [5] addresses T3, Human Scribble (KIAA0147, NP_056171.1) PDZ2 (aa 788-913) (Homo sapiens, UniProt Q14160).
T3 construct: Human Scribble (KIAA0147, NP_056171.1) PDZ2 (aa 788-913); GST; made in house
T3 sequence (Q14160 788-913 isoform Q14160-2): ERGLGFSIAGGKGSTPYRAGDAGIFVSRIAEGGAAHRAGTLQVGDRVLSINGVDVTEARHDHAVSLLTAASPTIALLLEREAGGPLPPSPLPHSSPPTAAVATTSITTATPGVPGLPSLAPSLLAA
Briefly: Carboxyl-terminal phage display binding selection. The note with it: number of phage-selected clones with this sequence, siblings counted as individuals. An excerpt:
Phage display technology was further employed essentially as described above, with minor modifications, to select ligands of a variety of PDZ domains (including additional, independent rounds of selection for ERBIN PDZ and MAGI3 PDZ3). Briefly, peptide ligands were selected from pools of randomized peptides. […] The peptides were fused to the M13 phage major coat proteins such that the C-termini of the randomized peptides were free and available for binding. PDZ domains were utilized as their GST-fusions (referred to in this Example simply as “PDZ domains”). The particular amino acids comprising each PDZ domain target are indicated in the heading of Tables 11-29.
Peptide ligands were selected and identified for 17 (18 including ERBIN) PDZ domains. […] At the bottom of each table, the occurrence of each amino acid residue is expressed as a percentage of the total number of residues in the relevant position. Siblings (peptides with identical DNA that appear as more than one copy) were counted as individuals. The numbers for occurrence were corrected for codon usage. The relative codon usage is indicated after each amino acid in the header of the bottom section of each table. “n” refers to the number of sequences (siblings counted as individuals) on which the occurrence value is based; this number is also shown as normalized with respect to codon usage.

Experiment [6] addresses T4, hZO1 PDZ1 (Homo sapiens, UniProt Q07157).
T4 construct: Human ZO1 (NM_003257) PDZ1; GST; made in house
Kind of experiment: IC50 (nM) | hZO1 PDZ1 | 5 nM | B01-88 | Bio-GGWRWTTWL (SEQ ID NO: 684) | 36 nM. The procedure: Table printed on a drawing sheet, FIG. 12A
Head of the field: IC50 (nM) | hZO1 PDZ1 | 5 nM | B01-88 | Bio-GGWRWTTWL (SEQ ID NO: 684) | 36 nM
The patent's description of the figure: FIG. 12. IC50 values indicating binding affinities of various peptides to PDZ domains
First copying reader's note: Upper left part of a table split over FIG. 12A-12D; further receptor columns and further peptides are on the other sheets.
Where the first naming reader finds the target: head: IC50 (nM) | hZO1 PDZ1 | 5 nM | B01-88

For experiment [7], the target named is T5, ERBIN PDZ-GST fusion protein (aa. 1217-1371 of SEQ ID NO:201) (human, UniProt P08515 1-218 = GST). Kind of experiment: competition ELISA: ERBIN PDZ-GST binding to immobilized biotin-WETWV.
T5 sequence (P08515 whole entry, the tested form may be a part): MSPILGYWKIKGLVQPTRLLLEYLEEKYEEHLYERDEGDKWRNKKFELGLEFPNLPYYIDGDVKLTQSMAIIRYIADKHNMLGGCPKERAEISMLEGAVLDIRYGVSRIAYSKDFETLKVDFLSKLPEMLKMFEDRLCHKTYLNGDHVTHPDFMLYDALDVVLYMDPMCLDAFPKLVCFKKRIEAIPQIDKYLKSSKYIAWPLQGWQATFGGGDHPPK
Experiment [8] concerns the target T5, ERBIN PDZ-GST fusion protein (aa. …). The description is as above. This is another data set of the same source.
For experiment [9] the target is unchanged. Briefly: competition ELISA: ERBIN PDZ-GST binding to immobilized biotin-PDZ 501.
For experiment [10] the target is unchanged. Kind of experiment: competition ELISA: ERBIN PDZ-GST binding to immobilized biotin-WETWV. The source holds these as a separate data set.
Setting [11] is: MAGI 3 PDZ2, concentration of peptide that blocked 50% of PDZ domain binding to immobilized peptide in an ELISA, read-out: IC50 (μM) PDZ2.
The mark [12] stands for this setting: MAGI 3 PDZ3, concentration of peptide that blocked 50% of PDZ domain binding to immobilized peptide in an ELISA, read-out: IC50 (μM) PDZ3.

T2 sequence (Q5TCQ9 726-808 limits assumed): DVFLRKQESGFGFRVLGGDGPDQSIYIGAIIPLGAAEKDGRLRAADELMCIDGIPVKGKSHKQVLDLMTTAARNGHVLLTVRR
Sequence of GST-MAGI-3 PDZ 2 (aa. 584-707 of SEQ ID NO:200) (human) [GST: P08515] (P08515 whole entry): as the sequence (P08515 whole entry, the tested form may be a part) above
T4 sequence (Q07157 23-110): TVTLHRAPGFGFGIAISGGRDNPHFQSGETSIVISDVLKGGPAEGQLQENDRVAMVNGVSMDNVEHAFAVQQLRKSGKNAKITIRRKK

For the molecule `CC[C@H](C)[C@H](N)C(=O)N[C@H](C(=O)N[C@@H](CCCCN)C(=O)N[C@H](C(=O)O)C(C)C)[C@@H](C)O` [ITKV, reference compound] (H-ITKV-OH; N-terminus and C-terminus assumed), the IC50 in experiment [1] (MAGI 3 PDZ2 domain, read-out: IC50) amounted to 200 µM.
ASKVTWV [ASKVTWV]: the IC50 in experiment [1] was 0.8 µM; in experiment [2], > 1000 µM.
Molecule ASWV (peptide) showed a half-inhibitory concentration (IC50) in experiment [3] of 35 µM. This molecule also displayed a fold reduction in binding against CSWV in [4] of 25 fold.
For “AWFETWV [phage-selected peptide, Scribble PDZ2]”, the occurence in experiment [5] was 2.
“Ac-FETWL [3 | 01-08, SEQ ID NO: 642: N^AC-FETWL]”: the IC50 in [6] is 10400 nM.
The same measure, in the same setting: then “Ac-WRWTTWL [9 | 01-103, SEQ ID NO: 648: N^AC-WRWTTWL]”, with 27 nM; and “Ac-WRWTTWV [13 | 01-31, SEQ ID NO: 652: N^AC-WRWTTWV]”, with 0.0443 nM; and “Ac-YRWTTWL [10 | 01-28, SEQ ID NO: 649: N^AC-YRWTTWL]”, with 31 nM.
CAWV (peptide): the 50% inhibitory concentration (IC50) in experiment [3] worked out at 7.3 µM. The molecule further had a fold reduction in binding against CSWV in [4] of 5 fold.
Regarding CSAV (peptide), the half-maximal inhibitory concentration (IC50) in [3] stood at 200 µM. In addition, in [4], the fold reduction in binding against CSWV is > 100 fold.
The corresponding values for CSWA (peptide) are 400 µM and > 100 fold.
Turning to DGICSWV [DGICSWV], the IC50 in experiment [1] is 0.3 µM; in experiment [2] it was > 1000 µM.
With “ESVRGFDTWV [phage-selected peptide, Scribble PDZ2]”, in experiment [5], the occurence is 1.
In the case of GCGCSWV, the IC50 in experiment [1] (setting [11]) amounted to 2 µM.
Molecule “HRVRETWV [phage-selected peptide, Scribble PDZ2]” showed an occurence in [5] of 21.
HTQITKV [HTQITKV, reference compound]: the values for the half-maximal inhibitory concentration (IC50) in experiment [1] (setting [11]) and in experiment [2] (setting [12]) were 200 µM and > 1000 µM, respectively.
Consider HTQITWV [HTQITWV], for which, in experiment [1] (setting [11]), the IC50 is 0.3 µM.
“LTVRETWV [phage-selected peptide, Scribble PDZ2]”: in [5], the occurence stood at 4.
As to “RKSRTFETWV [phage-selected peptide, Scribble PDZ2]”, in experiment [5], the occurence was determined as 1.
On the same count and under the same terms, to “RSRYRFTDV [phage-selected peptide, Scribble PDZ2]” belongs 6; to “STGKFFDTWV [phage-selected peptide, Scribble PDZ2]”, 1.
For TRWWFDI-NH2 [TRWWFDI-NH2], the IC50 in [2] (setting [12]) is 300 µM.
As for TRWWFDI-OH [TRWWFDI], the IC50 is > 1000 µM in experiment [1] (setting [11]) and 0.9 µM in experiment [2] (setting [12]).

B1: Ac-WETAV (peptide)
peptide: Ac-WETAV
In the case of B1, the IC50 in experiment [7] and in experiment [8] was 34 µM each time. In addition, the “fold less potent than Ac-WETWV” value in experiment [7] and in experiment [8] was 69.3 fold each time.

B2: TGWETWV (peptide)
peptide: TGWETWV
notes: test peptide in solution
B2 came in with an IC50 in experiment [9] of 0.5 to 1 µM.

B3: Ac-WETFV (peptide)
peptide: Ac-WETFV
As to B3, in experiment [8], the IC50 came to 14.5 µM and the “fold less potent than Ac-WETWV” value is 295 fold.

B4: Ac-WDTWV (peptide)
peptide: Ac-WDTWV
For B4, in experiment [10], the IC50 was found to be 1.7 µM and the “fold less potent than Ac-WETWV” value stood at 3.4 fold.

B5: TGWDTWV (peptide)
peptide: TGWDTWV
Molecule B5 yielded an IC50 in experiment [9] of 4.5 to 5 µM.

B6: Ac-WEVWV (peptide)
peptide: Ac-WEVWV
Turning to B6, in experiment [10], the IC50 came out at 4.8 µM and the “fold less potent than Ac-WETWV” value was determined as 9.8 fold.

B7: Ac-WESWV (peptide)
peptide: Ac-WESWV
In the case of B7, in [10], the IC50 is 2.5 µM and the “fold less potent than Ac-WETWV” value is 5.2 fold.

B8: Ac-WETYV (peptide)
peptide: Ac-WETYV
As to B8, in [8], the IC50 was found to be 42.5 µM and the “fold less potent than Ac-WETWV” value came out at 86.7 fold.

B9: DVPA (peptide)
peptide: DVPA
notes: also called DVPA ligand
Take B9: the IC50 in experiment [9] is > 100 µM.

The IC50 is the concentration that gives 50% inhibition.
